The series in a line: Cascade impactor (Andersen sampler) analysis of powder formulations as a model of artificial airways and lung. The conditions noted are these: Table 9.

Procedure: In order to investigate aerodynamic particle diameters of powders, examination was carried out using a cascade impactor as a model of artificial airways and lung. The main body comprises 8 stages and a final filter superposed on top of another in combination with a flow meter and a suction pump. The method described in “Multistage Cascade Impactor Apparatus” in USP 2000 “Physical Tests and Determinations/Aerosols” was basically employed. A specific condition is as described below.
Suitable amounts of the formulations were filled into the No. 2 capsules specified by the Japanese Pharmacopoeia and placed on the device.
These formulations were analyzed using a cascade impactor. […] These RF values are obtained by weighing the powders collected at each stage and dividing the amounts collected at stages 2 to 5 by a total amount of finely ground substances contained in the formulations.
These formulations were analyzed using a cascade impactor. […] These RF values are obtained by quantifying by HPLC the glucagon in formulations collected at each stage and dividing the amounts of glucagon at stages 2 to 5 by the total amount of glucagon contained in the encapsulated formulations. Conditions for HPLC analysis are as shown below.
These formulations were filled into the No. 2 capsules specified by the Pharmacopoeia of Japan and analyzed using the following device.

In the case of glucagon, the Retention in capsule result (No. 2 capsule, Jet-haler, suctioning for 10 seconds) is on record as “Almost all formulations remained due”. Besides, the RF value (glucagon by HPLC at stages 2 to 5 / total glucagon in encapsulated formulations, lactose carrier Pharmatose 325 M) was found to be 0%.

For the origin of these results see patent US20040109827A1, “Powdery preparations and proecss for producing the same” (priority 2000, published 2004).
